Reference: paper PMC2995052 (Nucleic Acids Research, 2010)

Target: the molecule itself
Test: SEC

B1: P2 C repressor (immunity repressor of temperate Escherichia coli phage P2) (natural protein, bacteriophage P2, UniProt P04132 1-99, looked up)
chain: MSNTISEKIVLMRKSEYLSRQQLADLTGVPYGTLSYYESGRSTPPTDVMMNILQTPQFTKYTLWFMTNQIAPEFGQIAPALAHFGQNETTSPHSGQKTG
stoichiometry N: 2
